Test results: paper PMC11371216, “Structural insight into the DNMT1 reaction cycle by cryo-electron microscopy”

Target: DNMT1 (human, UniProt P26358 1-1616)
Experiment: EMSA; SAM 20-fold excess + GSK3852279B 5-fold excess; no substantial change in binding; EMSA: 25 mM Tris-HCl pH 7.5, 40 mM NaCl, 20% glycerol, 1 mM DTT, 0.5 mM MgCl2, overnight at room temperature; covalent assay: 25 mM Tris-HCl pH 7.5, 20 mM KCl
Settings: protein: recombinant; tags: N-terminal Flag-6xHis-TEV site; blunt

DNMT1, sequence (P26358 whole entry): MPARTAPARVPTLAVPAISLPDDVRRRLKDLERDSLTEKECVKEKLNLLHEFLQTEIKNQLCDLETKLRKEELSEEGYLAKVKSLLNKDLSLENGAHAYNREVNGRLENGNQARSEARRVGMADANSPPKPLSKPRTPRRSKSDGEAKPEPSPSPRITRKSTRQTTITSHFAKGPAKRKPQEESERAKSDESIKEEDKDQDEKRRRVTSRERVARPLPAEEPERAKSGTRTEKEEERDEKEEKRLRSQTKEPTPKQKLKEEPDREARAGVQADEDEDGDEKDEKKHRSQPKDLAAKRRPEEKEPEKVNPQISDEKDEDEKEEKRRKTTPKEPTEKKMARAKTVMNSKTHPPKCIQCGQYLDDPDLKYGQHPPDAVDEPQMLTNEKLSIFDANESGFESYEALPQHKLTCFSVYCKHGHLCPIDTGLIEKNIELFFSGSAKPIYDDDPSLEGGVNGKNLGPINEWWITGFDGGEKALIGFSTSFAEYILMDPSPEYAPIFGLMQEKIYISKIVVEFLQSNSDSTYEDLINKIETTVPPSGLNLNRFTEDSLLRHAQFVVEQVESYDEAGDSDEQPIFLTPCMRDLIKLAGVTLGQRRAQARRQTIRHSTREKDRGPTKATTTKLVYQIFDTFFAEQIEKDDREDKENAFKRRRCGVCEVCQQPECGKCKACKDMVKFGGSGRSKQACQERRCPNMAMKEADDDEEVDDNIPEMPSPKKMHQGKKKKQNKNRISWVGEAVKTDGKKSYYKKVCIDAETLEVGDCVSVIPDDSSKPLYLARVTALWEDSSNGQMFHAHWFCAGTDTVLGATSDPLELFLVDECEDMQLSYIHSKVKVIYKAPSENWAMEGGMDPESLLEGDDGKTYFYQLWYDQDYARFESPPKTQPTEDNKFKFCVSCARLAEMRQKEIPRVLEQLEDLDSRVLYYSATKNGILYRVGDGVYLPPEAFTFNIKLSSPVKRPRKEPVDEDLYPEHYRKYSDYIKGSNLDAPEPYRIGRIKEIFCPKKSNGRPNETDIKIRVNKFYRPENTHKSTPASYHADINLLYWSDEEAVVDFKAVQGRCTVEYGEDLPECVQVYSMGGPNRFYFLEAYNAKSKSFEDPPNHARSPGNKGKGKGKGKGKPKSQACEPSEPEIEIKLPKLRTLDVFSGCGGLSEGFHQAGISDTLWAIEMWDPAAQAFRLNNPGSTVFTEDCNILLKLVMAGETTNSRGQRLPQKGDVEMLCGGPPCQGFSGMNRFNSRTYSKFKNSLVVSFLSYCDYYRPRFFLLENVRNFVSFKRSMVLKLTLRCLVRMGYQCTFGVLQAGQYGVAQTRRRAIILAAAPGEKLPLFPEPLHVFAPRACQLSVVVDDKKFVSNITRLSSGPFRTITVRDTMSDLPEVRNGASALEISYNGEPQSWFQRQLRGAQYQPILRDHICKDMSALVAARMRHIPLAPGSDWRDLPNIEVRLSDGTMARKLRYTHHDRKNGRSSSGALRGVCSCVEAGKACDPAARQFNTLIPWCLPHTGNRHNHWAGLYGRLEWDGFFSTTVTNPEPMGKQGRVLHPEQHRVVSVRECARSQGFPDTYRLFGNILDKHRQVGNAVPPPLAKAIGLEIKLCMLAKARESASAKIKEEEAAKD

B1: 26 bp hemi-methylated DNA (dsDNA)
DNA 1: TGGAGTCGAGGCCGCCTGCGCAGGAC
DNA 2: GTCCTGCGCAGGCGGCCTCGACTCCA
modifications: 5-methyl-dC at position 13 of strand 1
B1: binds.
